We go through 13 variants from publication PMC5932034 (2018).

B1: fused FliT−FliD^C construct (FliD^C fused to the N terminus of FliT) [Salmonella enterica serovar Typhimurium ST313] / cytoplasmic domain of Salmonella enterica serovar Typhimurium FlhA (FlhA^C) [Salmonella enterica serovar Typhimurium … (parent complex)
chain 1: GAHMSIDETVARYKAQFTQLDTMMSKLNNTSSYLTQQFTAMNKSGGSGGSGSGGSGGMTSTVEFINRWQRIALLSQSLLELAQRGEWDLLLQQEVSYLQSIETVMEKQTPPGITRSIQDMVAGYIKQTLDNEQLLKGLLQQRLDELSSLIGQSTRQKSLNNAYGRLSGMLLVPDAPGAS
chain 2: SLGMEVGYRLIPMVDFQQDGELLGRIRSIRKKFAQDMGFLPPVVHIRDNMDLQPARYRILMKGVEIGSGDAYPGRWLAINPGTAAGTLPGEKTVDPAFGLDAIWIESALKEQAQIQGFTVVEASTVVATHLNHLIGQFSAELFGRQEAQQLLDRVSQEMPKLTEDLVPGVVTLTTLHKVLQNLLAEKVPIRDMRTILETLAEHAPLQSDPHELTAVVRVALGRAITQQWFPGNEEVQVIGLDTALERLLLQALQGGGGLEPGLADRLLAQTQEALSRQEMLGAPPVLLVNHALRPLLSRFLRRSLPQLVVLSNLELSDNRHIRMTATIGGK
B2: fused FliS−FliC^C construct (FliC^C fused to the C terminus of FliS) [not stated] / cytoplasmic domain of Salmonella enterica serovar Typhimurium FlhA (FlhA^C) [Salmonella enterica serovar Typhimurium ST313] (parent complex)
chain 1: MYTASGIKAYAQVSVESAVMSASPHQLIEMLFDGANSALVRARLFLEQGDVVAKGEALSKAINIIDNGLKAGLDQEKGGEIATNLSELYDYMIRRLLQANLRNDAQAIEEVERLLSNIAEAWKQISPKASFQESRGTASGAGGSEGGGSEGGTSGATEDSDYATEVSNMSRAQILQQAGTSVLAQANQVPQNVLSLLR
chain 2: B1 chain 2

The variants in the first test derive from B1. The test is described as follows: ITC; parent: 1; read off a plot. In general terms: ITC needs no label: the signal is the heat of the interaction.
Consider chain 2 SLGMEVGYRLIPMVDFQQDGELLGRIRSIRKKFAQDMGFLPPVVHIRDNMDLQPARYRILMKGVEIGSGDAYPGRWLAINPGTAAGTLPGEKTVDPAFGLDAIWIESALKEQAQIQGFTVVEASTGVATHLNHLIGQFSAELFGRQEAQQLLDRVSQEMPKLTEDLVPGVVTLTTLHKVLQNLLAEKVPIRDMRTILETLAEHAPLQSDPHELTAVVRVALGRAITQQWFPGNEEVQVIGLDTALERLLLQALQGGGGLEPGLADRLLAQTQEALSRQEMLGAPPVLLVNHALRPLLSRFLRRSLPQLVVLSNLELSDNRHIRMTATIGGK [chain 2 V126G], for which the ratio to parent is around 4. In the case of chain 2 SLGMEVGYRLIPMVDFQQDGELLGRIRSIRKKFAQDMGFLPPVVHIRDNMDLQPARYRILMKGVEIGSGDAYPGRWLAINPGTAAGTLPGEKTVDPAAGLDAIWIESALKEQAQIQGFTVVEASTVVATHLNHLIGQFSAELFGRQEAQQLLDRVSQEMPKLTEDLVPGVVTLTTLHKVLQNLLAEKVPIRDMRTILETLAEHAPLQSDPHELTAVVRVALGRAITQQWFPGNEEVQVIGLDTALERLLLQALQGGGGLEPGLADRLLAQTQEALSRQEMLGAPPVLLVNHALRPLLSRFLRRSLPQLVVLSNLELSDNRHIRMTATIGGK [chain 2 F98A], the ratio to parent was around 9. chain 2 SLGMEVGYRLIPMVDFQQDGELLGRIRSIRKKFAQDMGFLPPVVHIRDNMDLQPARYRILMKGVEIGSGDAYPGRWLAINPGTAAGTLPGEKTVDPAFGLDAIWIESALKEQAQIQGFTVKEASTVVATHLNHLIGQFSAELFGRQEAQQLLDRVSQEMPKLTEDLVPGVVTLTTLHKVLQNLLAEKVPIRDMRTILETLAEHAPLQSDPHELTAVVRVALGRAITQQWFPGNEEVQVIGLDTALERLLLQALQGGGGLEPGLADRLLAQTQEALSRQEMLGAPPVLLVNHALRPLLSRFLRRSLPQLVVLSNLELSDNRHIRMTATIGGK [chain 2 V121K]: the ratio to parent was around 7. Turning to chain 2 SLGMEVGYRLIPMVDFQQDGELLGRIRSIRKKFAQDMGFLPPVVHIRDNMDLQPARYRILMKGVEIGSGDAYPGRWLAINPGTAAGTLPGEKTVDPAFGLDAIWIESALKEQAQIQGFTVVEASTVVAMHLNHLIGQFSAELFGRQEAQQLLDRVSQEMPKLTEDLVPGVVTLTTLHKVLQNLLAEKVPIRDMRTILETLAEHAPLQSDPHELTAVVRVALGRAITQQWFPGNEEVQVIGLDTALERLLLQALQGGGGLEPGLADRLLAQTQEALSRQEMLGAPPVLLVNHALRPLLSRFLRRSLPQLVVLSNLELSDNRHIRMTATIGGK [chain 2 T129M], the ratio to parent is around 3.3.

For the variant chain 2 SLGMEVGYRLIPMVDFQQDGELLGRIRSIRKKFAQDMGFLPPVVHIRDNMDLQPARYRILMKGVEIGSGDAYPGRWLAINPGTAAGTLPGEKTVDPAFGLDAIWIESALKEQAQIQGFTVVEASTVVATHLNHLIGQFSAELFGRQEAQQLLDRVSQEMPKLTEDLVPGVVTLTTLHKVLQNLLAEKVPIRDMRTILETLAEHAPLQSDPHELTAVVRVALGRAITQQWFPGNEEVQVIGLDTALERLLLQALQGGGGLEPGLADRLLAQTQEALSRQKGGGAPPVLLVNHALRPLLSRFLRRSLPQLVVLSNLELSDNRHIRMTATIGGK [chain 2 E279K, chain 2 M280G, chain 2 L281G], the ratio to parent was around 10. The same measure, in the same setting: to chain 2 SLGMEVGYRLIPMVDFQQDGELLGRIRSIRKKFAQDMGFLPPVVHIRDNMDLQPARYRILMKGVEIGSGDAYPGRWLAANPGTAAGTLPGEKTVDPAFGLDAIWIESALKEQAQIQGFTVVEASTVVATHLNHLIGQFSAELFGRQEAQQLLDRVSQEMPKLTEDLVPGVVTLTTLHKVLQNLLAEKVPIRDMRTILETLAEHAPLQSDPHELTAVVRVALGRAITQQWFPGNEEVQVIGLDTALERLLLQALQGGGGLEPGLADRLLAQTQEALSRQEMLGAPPVLLVNHALRPLLSRFLRRSLPQLVVLSNLELSDNRHIRMTATIGGK [chain 2 I79A] belongs around 6; to chain 2 SLGMEVGYRLIPMVDFQQDGELLGRIRSIRKKFAQDMGFLPPVVHIRDNMDLQPARYRILMKGVEIGSGDAYPGRWLAINPGTAAGTLPGEKTVDPAFGLDAIWIESALKEQAQIQGFTVVEASTVVATHLNHLIGQFSAELFGRQEAQQLLDRVSQEMPKLTEDLVPGVVTLTTLHKVLQNLLAEKVPIRDMRTILETLAEHAPLQSDPHELTAVVRVALGRAITQQWFPGNEEVQVIGLDTALERLLLQALQGGGGLEPGLADRLLAQTQEALSRQKMLGAPPVLLVNHALRPLLSRFLRRSLPQLVVLSNLELSDNRHIRMTATIGGK [chain 2 E279K], around 5.

The next test covers variants of B2. The test is described as follows: ITC; parent: 1; read off a plot.
On to chain 2 SLGMEVGYRLIPMVDFQQDGELLGRIRSIRKKFAQDMGFLPPVVHIRDNMDLQPARYRILMKGVEIGSGDAYPGRWLAINPGTAAGTLPGEKTVVPAFGLDAIWIESALKEQAQIQGFTVVEASTVVATHLNHLIGQFSAELFGRQEAQQLLDRVSQEMPKLTEDLVPGVVTLTTLHKVLQNLLAEKVPIRDMRTILETLAEHAPLQSDPHELTAVVRVALGRAITQQWFPGNEEVQVIGLDTALERLLLQALQGGGGLEPGLADRLLAQTQEALSRQEMLGAPPVLLVNHALRPLLSRFLRRSLPQLVVLSNLELSDNRHIRMTATIGGK [chain 2 D95V], for which the ratio to parent is around 15. For the variant chain 2 SLGMEVGYRLIPMVDFQQDGELLGRIRSIRKKFAQDMGFLPPVVHIRDNMDLQPARYRILMKGVEIGSGDAYPGRWLAINPGTAAGTLPGEKTVDPAFGADAIWIESALKEQAQIQGFTVVEASTVVATHLNHLIGQFSAELFGRQEAQQLLDRVSQEMPKLTEDLVPGVVTLTTLHKVLQNLLAEKVPIRDMRTILETLAEHAPLQSDPHELTAVVRVALGRAITQQWFPGNEEVQVIGLDTALERLLLQALQGGGGLEPGLADRLLAQTQEALSRQEMLGAPPVLLVNHALRPLLSRFLRRSLPQLVVLSNLELSDNRHIRMTATIGGK [chain 2 L100A], the ratio to parent is around 4. The same measure, in the same setting: to chain 2 SLGMEVGYRLIPMVDFQQDGELLGRIRSIRKKFAQDMGFLPPVVHIRDNMDLQPARYRILMKGVEIGSGDAYPGRWLAINPGTAAGTLPGEKTVDPAFGLDAIWIESALKEQAQIQGFTVKEASTVVATHLNHLIGQFSAELFGRQEAQQLLDRVSQEMPKLTEDLVPGVVTLTTLHKVLQNLLAEKVPIRDMRTILETLAEHAPLQSDPHELTAVVRVALGRAITQQWFPGNEEVQVIGLDTALERLLLQALQGGGGLEPGLADRLLAQTQEALSRQEMLGAPPVLLVNHALRPLLSRFLRRSLPQLVVLSNLELSDNRHIRMTATIGGK [chain 2 V121K] belongs around 12; to chain 2 SLGMEVGYRLIPMVDFQQDGELLGRIRSIRKKFAQDMGFLPPVVHIRDNMDLQPARYRILMKGVEIGSGDAYPGRWLAINPGTAAGTLPGEKTVDPAFGLDAIWIESALKEQAQIQGFTVVEASTGVATHLNHLIGQFSAELFGRQEAQQLLDRVSQEMPKLTEDLVPGVVTLTTLHKVLQNLLAEKVPIRDMRTILETLAEHAPLQSDPHELTAVVRVALGRAITQQWFPGNEEVQVIGLDTALERLLLQALQGGGGLEPGLADRLLAQTQEALSRQEMLGAPPVLLVNHALRPLLSRFLRRSLPQLVVLSNLELSDNRHIRMTATIGGK [chain 2 V126G], around 15; to chain 2 SLGMEVGYRLIPMVDFQQDGELLGRIRSIRKKFAQDMGFLPPVVHIRDNMDLQPARYRILMKGVEIGSGDAYPGRWLAANPGTAAGTLPGEKTVDPAFGLDAIWIESALKEQAQIQGFTVVEASTVVATHLNHLIGQFSAELFGRQEAQQLLDRVSQEMPKLTEDLVPGVVTLTTLHKVLQNLLAEKVPIRDMRTILETLAEHAPLQSDPHELTAVVRVALGRAITQQWFPGNEEVQVIGLDTALERLLLQALQGGGGLEPGLADRLLAQTQEALSRQEMLGAPPVLLVNHALRPLLSRFLRRSLPQLVVLSNLELSDNRHIRMTATIGGK [chain 2 I79A], around 10.

A further test covers variants of B2. The test is described as follows: ITC; parent: 1; read off a plot. This is another data set of the same source.
As for chain 1 MYTASGIKAYAQGSVESAVMSASPHQLIEMLFDGANSALVRARLFLEQGDVVAKGEALSKAINIIDNGLKAGLDQEKGGEIATNLSELYDYMIRRLLQANLRNDAQAIEEVERLLSNIAEAWKQISPKASFQESRGTASGAGGSEGGGSEGGTSGATEDSDYATEVSNMSRAQILQQAGTSVLAQANQVPQNVLSLLR [chain 1 V13G], the ratio to parent was around 6.5.
